Substrate in this data set: Nc1ncnc2c1ncn2[C@@H]1O[C@H](COP(=O)(O)OP(=O)(O)OP(=O)(O)O)[C@@H](O)[C@H]1O
The experiment in a line: purified protein. The conditions noted are these: labelled compound, ΦX174 ssDNA, Mg2+, 65°C.

Residue numbers refer to the chain shown, from its start. In names and notes the source's numbering stands.

One may read the Km as the concentration of substrate that gives half-maximal velocity. For orientation: kcat means the number of substrate molecules converted per active site and unit of time at saturation.

B1: SsoRadA (Sulfolobus solfataricus RadA) (Saccharolobus solfataricus P2) (protein)
chain: MSNEVEQKKNIKTINDLPGISQTVINKLIEAGYSSLETLAVASPQDLSVAAGIPLSTAQKIIKEARDALDIRFKTALEVKKERMNVKKISTGSQALDGLLAGGIETRTMTEFFGEFGSGKTQLCHQLSVNVQLPPEKGGLSGKAVYIDTEGTFRWERIENMAKALGLDIDNVMNNIYYIRAINTDHQIAIVDDLQELVSKDPSIKLIVVDSVTSHFRAEYPGRENLAVRQQKLNKHLHQLTRLAEVYDIAVIITNQVMARPDMFYGDPTVAVGGHTLYHVPGIRIQLKKSRGNRRIARVVDAPHLPEGEVVFALTEEGIRDAEE
For B1, for the setting “3.0 μM protein”, the Km is 300 ± 10 µM and the catalytic constant (kcat) is 0.00085 ± 1.7e-05 s⁻¹.

B2: SsoRadA (Sulfolobus solfataricus RadA) (Saccharolobus solfataricus P2; F73D) (protein)
chain: B1 chain with F73D
Turning to B2, under “5.0 μM protein”, the Km worked out at 490 ± 30 µM and the kcat turned out to be 0.00085 ± 1.7e-05 s⁻¹.

B3: SsoRadA (Sulfolobus solfataricus RadA) (Saccharolobus solfataricus P2; R83A) (protein)
chain: B1 chain with R83A
Take B3: for the setting “2.5 μM protein”, the Km worked out at 210 ± 10 µM and the kcat was 0.00152 ± 1.7e-05 s⁻¹.

B4: SsoRadA (Sulfolobus solfataricus RadA) (Saccharolobus solfataricus P2; R83E) (protein)
chain: B1 chain with R83E
For the protein B4, under “5.0 μM protein”, the Michaelis constant (Km) stood at 460 ± 60 µM and the kcat is 0.000867 ± 6.7e-05 s⁻¹.

The values are drawn from publication PMC1874592.
